Consider one substance from paper PMC3274521, “Effects of a Non-Conservative Sequence on the Properties of β-glucuronidase from Aspergillus terreus Li-20” (PLoS ONE, 2012).

This data set relates to CC1(C)[C@@H](O[C@H]2O[C@H](C(=O)O)[C@@H](O)[C@H](O)[C@H]2O[C@@H]2O[C@H](C(=O)O)[C@@H](O)[C@H](O)[C@H]2O)CC[C@]2(C)[C@H]3C(=O)C=C4[C@@H]5C[C@@](C)(C(=O)O)CC[C@]5(C)CC[C@@]4(C)[C@]3(C)CC[C@@H]12. In words: purified protein. To be noted: GL 0.375 to 4 mM, assay pH and temperature not stated for kinetics (optimum pH 6.6, 55 °C).

Regarding “AtGUS-E (AtGUS) (Aspergillus terreus NIH2624)”, the Michaelis-Menten constant (Km) is given as 12.9 mM, the Vmax was 1.84 µmol/min/mg, the turnover number (kcat) is 29 s⁻¹ and the kcat/Km came to 2240 M⁻¹ s⁻¹.

For orientation: Km means the substrate concentration at which the rate is half of its maximum. As a reminder, the Vmax is the top rate of the reaction or transport when substrate is in excess. By kcat is commonly meant the maximal rate divided by the concentration of active sites. One may read the kcat/Km as the turnover number divided by the Michaelis constant.
